Assay: label from the status in PepcDB records
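Note: failed if final PepcDB status was selected cloned or expressed and not failed if soluble or beyond.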

Sequence | protein production
MKYLAFSIVFILTAFTRVTAQNLDGIDKSLSLSKMKTRARIAEETGDIYTALFYYEEVVRNDSSDLKALYQVAEMQRFTRNYKAAEVTYGKIHEIAAADYPLAQYYQGLMQKMTGRYEDAKQTFSEFRKNSAALADKTFKATLARDISGCDSGITYRDFPQNTQIKNAGKSVNFPHTEFSPVILDSTTLAFGSLRIDSVIYYDTRGEHYEKQPVRQLYEAKKVKGQWVEKGLLEAINDPAMDMGNFVYSPTTDRYYFTKCTKNHHGKVSCAIYYSERVSGKWSHPSKLPDPINIEGYTATQPTIVIDTTSSSAATTTPKNMPPRKTGGNKPVPKPVVNTIEYLYFVSDRPKGKGGLDIWYTSYNASKKTWNEPTNLAVANTPETECTPFYHVPTQTLYFSSNGLVNAGGLDIYKLEKDGRRFGRPENLSFPVNSPQDELSFVLADNAKTGFFVSNRPGGTPFFHETCCDDIFSFEVIPPPPFVCTLDLSVLDVAAKNNCDGELLNINQVNLKTKAAEKDTVRLSSCKYTVSLAQHVKYTFFINKPGYVTDTLSFETRDMCATPTITKSLTLVPVSVSMKNSEPVIETPVEGKAFVLKDIQYETNQTDLNDEAKAAIDNILIPFLKEHPTDKIIISSHTDDVGSHKYNENLSDQRALKVMQYLIQKGISAKQIQAKGYGETKPIASNINPDGSENEIGRSINRRTEFLISK | failed
MKYLYQQLLAFIGVIALIILIVGTSFTQLTKRTMQENNYEQLYGYAESALETRDFFINVAGVSDRDVLSYSFQLTERVLQKQDVQFVFINKDREVQYPPVDSTKKLDFSLIDKNWDQIMKGNRVYATENIDIYGARNTSSYVMLPVYASNQSSDKKVIIGSLVITQPAKNVDRSVQSVTQNLIKGFIFSGVIALLLSYLFATFQVKRINRMRKATKEITSGNFDIQLPVHDKDEFDDLAEDFNKMAASLKESQEEINRQEERRRQFMADASHEMRTPLTTINGLLEGLQYNAIPENQKENAIKLMQNETARLIRLVNENLDYEKIRTNQIQIVVKKFNGTEALENIVTQLTAKAEAAGNQLYLDTTEPIDVYADYDRFVQVVVNIVQNAIQFTENGEIHIALEKGYLETIVRISDTGIGMTEEQILNIWDRYYKVDPSRKNTKYGESGLGLPIVQQLVRLHKGKINVESELGKGTTFIISFPDVEITEN | not failed
MKYSTRADIQDYLKQGYQLVSDNFVTGTTFDTDDRTDQIYEVHFKHGIESDFEKRNVKETVHYRYDNGQLARPIYQNVLNFERKVETDQVTKQRNYKNWQAVDGTSFKRVVSPYIKGYTAVPKLIDEITNINENHKNIEKIVVYKANDEKAQVKYFDDTTGRKLSEQFLHGAYGSRDVYRTANTIQHYKQMGYELVSDDYPKNGAKYSQDKLVRVYEIHLKHKIIEQSEKSTVKEVIHYLYDNGHLAKPVYESVLNFSRMVGIDQVTGKKYYGIWQATEGTSFKKVVSPKIEGYTALPKVVVAINNINVNHANIEKIVVYKANDEKARVKYFDDTIGRKLSEQLLHGVYGSRDVYRTANTIQRYKQMGYELVSDNYPKNGANYSQDKLVRVYEIHLKHKIVKQPEKSTVKEVIHYLYDNGQPAGPIYENELDFKRIIEFDQVTKQKRYGNWQAIDGTYFKKVDSPKIIGYTPTLEAIETINNIDGSHKDIEETVVYKINDEKAQVTYYDDTTRKKLSEKGLNGAYRTRDSYRTVDAINQYKWAGYELVSDDYPQNGVFYDQDKLIKMYEVHLKHGEKMDFEQRAVKEVIYYQYDDGQLAEPTYKNKLSFRRIVKIDQVTGQKYYGVWQAVDGTNFRSVVSPIIEGYTPIPEIVRAINNINSYHQDVEKTVVYQANKQNEVVGGNSPKKFKQIKIILVRVIHPNREVRINTEKSHTKK | failed
MKYVPSFKSLKETENGWELQVSWMITVTLRVTMQKSRDEITYLIKKTEGLVKINSYLRFIILPTRDRTVVRLTFFYKGPFERVAKRQTEEFYRRGVEIFKRDLESVQVERKEERGAPSNAKLLLNMRTLLSTQIGKDQLDEVLEQAMLWSVNSQVFVLISDGSRRVELRFRNGDLESGGDLSSLGDKITVIVKGDRAD | failed
MLADELTIGPIRAVPMDITPKYVGIASGLMNAGSAVADIISPIAFGIIIDKTGNWSLPFYGSVALLVIGIFLTFFMRPDKSL | failed
MLADHARALDALRSALTPLKAELVAAELESIPVSRLKDVTEGRLRLGAVEAAGFTSVRGVYEAGRYELRQLPGVGEQTADRALAAARQIARAVAETVSVRLDVDHPEPRTTALVVALHRLVEAGPELRRALDAATRLDERLGALLPAARPAGGRLRLALAGRHRREDALAAAAETRDLVAEATARDVPLLLAQASTDLLRDPASDIEAWVDFELRSAEYYSQLAEVSEHRPDAEAGEGFLPSGVAERVHAQPLDDTHRRVSLRGYQSFGARFALAQRRVVLGDEMGLGKTVQAIAALAHLAAEGHSHFLVVCPASVLINWTREIRARSTLRALPVHGADRRDAYEEWRERGGVAVTTFDVLHSLPVPDTEKPGMLVVDEAHYVKNPDTRRAKAVTGWTAHCDRVLFLTGTPMENRVEEFRALVRHLQPALLPAVQGGGVAAGPHAFRKSVAPAYLRRNQQDVLTELPALVQVDEWEELSAADRDAYRKAVAEGNFMAMRRAAYADAEKSAKLGRLRELVAEAADNGLKVVVFSYFREVLATVQQCLGEPVLGPISGGVPAARRQRLVDAFAAIDGHAVLLAQIEAGGTGLNLQAASVVILCEPQVKPTMEHQAVARAHRMGQIRTVQVHRLLATDSVDDRLLRILKNKDRLFDAYARRSDIAEATPDAVDVSDASLARRIVEEEQQRLAARPADQPARTTS | failed
MLADPAQPEHVFIVEDSRGATELKLYKSHYTIGKADSCDIRLHSIYASRQHATLVRFLTENGEVRYRLIDGDPETSRRSANGTYVNNRSITECDLKHYDQILFGADVKATYFYLSPQFRSLEHHHHHH | failed
MLAFFIFLSTLVLLFWRPWNLPIWVFSSLGAFFVFIFQLVDFKDACFVFSLVWDSSLTLVGLIILSFSLEALGFFDFIASKILYFSREKNQEKIYISTKKMMLFLLIFVFFLSAFFANDGAILIITPIIIALFSTLKDCKNHAFILSSFLLSLSFLCDASSNALVISNLTNIITANYFKIEFLEFAKNMFLPNFFVLLSTIVTVFVLYVRVLPKRLEFKLIKKEQISLKLFFLCIVFLFLFVISFFIGEIFNIKISFFALLWAGIFWLIILKIQGKKSIKILFEAPYGVLLFSFGLYMVVFALHKIGVSEILVKSYAFLMQDKSGIFGVALISAFGSSVFNNLPMVLIGDLALKEYFENFSFDSLMIYAHLLGVNIGPKLTPIGSLATLLWLGVLARKGINISFWQYCKFGFLITLPVLVFSLFALIV | failed
MLAFNLLRSAHMLNPALQVLAKDGSIADNTYQPIAEDGVIPAGDVVMTTAQLDQLTAIQGKKALYITVNDSPETHQFPLDQLDAIFIEFAGFNDGRGYSFAALLRRQGYQGELRAVGDIFKDVLNYLKRSGFDTFVIKEGKDIQEAAAGLNDFRQPYQASTAVPQADYQTGA | failed
MLAGATLAIGVIAPQVLPATAHADEQTGESTVNLRILETSDIHVNLMNYDYYQTKTDNKVGLVQTATLVNKAREEAKNSVLFDDGDALQGTPLGDYVANKINDPKKPVDPSYTHPLYRLMNLMKYDVISLGNHEFNYGLDYLNKVISKTEFPVINSNVYKDDKDNNEENDQNYFKPYHVFEKEVEDESGQKQKVKIGVMGFVPPQVMNWDKANLEGKVKAKDIVETAKKMVPKMKAEGADVIVALAHSGVDKSGYNVGMENASYYLTEVPGVDAVLMGHSHTEVKDVFNGVPVVMPGVFGSNLGIIDMQLKKVNGKWEVQKEQSKPQLRPIADSKGNPLVQSDQHLVNEIKDDHQATIDYVNT | failed
MLAGHLFAGVGEDVRLFKGITMTYGHNIELGDNAVVHDGVHLDDRGELVVGARASVSNGAHLYTHDHDVVDQTDVTNYRTEIGADARVTQGALVRAGVRVGENALVGSRSVVQGDVPAHHIAVGSPAESVRVKPGWLEHHHHHH | failed
MLAQIEQEHYSKLHEILRLCRANLKNYDESLIQRAFFMCYRAHEGEKRASGEPFFYHPVEVAKLLVTELPLDGVSVAAALLHDVIEDSGYTYEDISAELGAEVADIVEGLTKISEIMVNRETTEAEGFRKMLLSMVKDIRVILIKFCDRLHNMRTLDSLPEHRRLRMALETRDIYAPLAHRFGLGKMKVDLENLALKYIDPEMYDYLLKKVRLSRNERVAYLNKMIAPIKDDLEKQGFTVELQGRAKHLYSIYNKMRMKNKKFDDIHDLYGIRVIIDTEKISDCFAVYGYITQQFPPIPQHFKDYISIPKHNGYQSLHSAIIGPKGHVVELQIRTRRMHEFAELGVAAHWRYKEKISKDDAALDSFLKWARELIKDADSATAFMEGFKLNLYHDEIYVFTPKGDMKVLPAGATPIDFAYAIHSEIGNGCIGAKVNGKIVRLNTELRSGDRVEVITSKSQRPKADWLKIVVTHRAKLKIRAAINEERRQEIEKGRSIWEKMLSGSKKLFTENDAIRAIRQHGIKTPADLFNALAKQQISSEEVLERISHPHRPAETHESTVQARAPHKDFAEIAREVQERLGYQKDEVTIAGLNNISYSYAKCCNPVPGDDIIGFVTTGGTVKIHRKNCVNVTNENSVKSERIVSVAWNRKVDTDFLAGIRIVGEDKIGMTNQITGVISKFDTNIRTIVLNAKDGIFTCNLMIFVKNTDKLTTLMDKLRKVQGVFTVERLSN | failed
MLAQQIVGIFLMTTGTLFVFVAGLGVLRLPDVYMRLHASTKAGTLGVALNAAGLVVFHPDLGIFTRAFALVLFLLLTAPVAAHMIGRASYFAREEMGVSIWDGTVVDRMLDHRGEALFSTGAPEDGADASGSPS | failed
MLARRIVAKHVTKTTALAMLGTTIVLVILQVLFTYLGELSNLKADYSAWQAFLYVLWGAPRYLYEILPISALIGAILGLGTLASNSELIVMRSVGISLWRIVGWVIRSALVLVLLSFALSEWVVPYTNERANSVKSHQSVAALGEVRGYWSREGQRFIYVDYANSQGQLKRIQVVDFDDNYRLKSVTNAEQGQFVKDGQWLLNHSQQMAIQGQGDAVLANAAKQPFSLALQPKYVHMVTIDPEDLSFSQLVSFMNYMREYSQVPKTYQLAFWKKVASPFALITLVLVACSFIFGPLRQQSMGFRLVIALFIGLGFYYLQDFLGYASLVYNPSPAWFVLGPIVLMFVAGSYLLYRAR | failed
MLASIISILRVFVLLFNTPLFIFAFLPVGFLGYFILQAYAKNPLFPKLWLVLASLFFYAFWNVKYLPLLVGSIVFNYFVALKIHQTQPNAYKRLWLILGLIANVSLLGFFKYTDFFLTNFNLIWKSHFETLHLILPLAISFFTLQQIAYLMDTYKQNQIMQPKMRERVSENAPILLNPPTSFFSLSHFLDYALFVSFFPQLIAGPIVHHSEMMPQFKDKNNQYLNYRNIALGLFIFSIGLFKKVVIADNTAHFADFGFDKATSLSFIQAWMTSLSYSFQLYFDFSGYCDMAIGIGLFFNIKLPINFNSPYKALNIQDFWRRWHITLSRFLKEYLYIPLGGNRVKELIVYRNLILVFLIGGFWHGAGWTFIIWGLLHGIALSVHRAYSHATRKFHFTMPKILAWLITFNFINLAWVFFRAKNLESALKVLKGMVGLNGVSLCHLSKEASEFLNRVNDNMIMHTIMYASPTFKMCVLMIIISFCLKNSSHLYQSNQMDWIKTTSACLLLSIGFLFIFASSQSVFLYFNF | failed
MLASVRVNQLQRLLLSARRLSSSPIIPPSRLLHQRLFSTSDTDASAASFSSSHPKIQTLEGKASNKSRSTSSTTSLNEDELAKFSAIADTWWHSEGPFKPLHQMNPTRLAFIRSTLCRHFSKDPSSAKPFEGLKFIDIGCGGGLLSEPLARMGATVTGVDAVDKNVKIARLHADMDPVTSTIEYLCTTAEKLADEGRKFDAVLSLEVIEHVANPAEFCKSLSALTIPNGATVLSTINRTMRAYASTIVGAEYILRWLPKGTHQWSSFVTPEEMSMILQRASVDVKEIAGFVYNPITGRWLLSDDISVNYIAYGTKRKDLGDI | failed
MLATPFWYNAALKVLKPVYRWRIKKRAENEMRYQQECRERFGPFQQPQNRHALWFHAVSVGETNAAQPLIEYYLKLGHPVLVTNTTKTGQARAKSLFLKSPYLELFQAVYLPVDQIFLLKQFFELYQPKLLALVETELWPNLIDQAQHYGVPTFLINARLSEKSAQGYARVSALSNAMLSRLTGLLAQDQSTQQRFIGLGLAREKAQVVGNIKFDIDVPLEHHHHHH | failed
